In assay [1] the target is T1, Integrin α2β1 on human chondrosarcoma cells (K9, K105) (human, UniProt P17301 30-1181; P05556 21-798).
T1 construct: whole, on cells; The cells are not engineered; also called integrin α2β1 receptor; β1 integrin
Nature of the assay: adhesion of K9 cells to coated protein, 1 hour, N-acetylglucosaminidase read-out; receptor as attributed in paragraph 181. How it is done: To test cell binding, the chondrosarcoma cells or bovine chondrocytes were suspended in PBS containing 0.1% BSA, 25 U/ml collagenase and added to the wells (50,000/well), in the absence or presence of various peptide pools or the synthetic peptides (200, 100, 50, 25, 12.5 μg/ml). Non-adherent cells were removed after 1 hour and adhesion was determined by measuring lysosomal N-acetylglucosaminidase (12). Adhesion and spreading was visualized by light microscopy. In the time studies, k105 cells were allowed to adhere for 30 minutes, unbound cells were removed and medium without serum supplemented with or without peptides (250 μg/ml), β1 integrin antibody (clone P4C10, Gibco BRL), EDTA (5 mM) was added. Cell morphology was visualized by light microscopy after 1, 3 and 20 hours.
48-well tissue culture dishes were coated with 5 μg/ml collagen type II, tissue extracted bovine chondroadherin, human chondroadherin expressed in EBNA cells and human chondroadherin expressed in E. coli and blocked for non-specific binding with BSA. The cells were allowed to adhere for 1 hour at 37° C. Nonadherent cells were removed by washing and adhesion was determined by analyzing lysosomal N-acetylglucosaminidase. Adhesion is expressed in number of cells, 50,000 cells/well were seeded.

Assay [2] has as its target T1, Integrin α2β1 on human chondrosarcoma …. Nature of the assay: adhesion of k105 cells to coated peptide, light microscopy; receptor as attributed in paragraph 163 and paragraph 181.

T1 sequence (P17301 30-1181, chain 1 of 2): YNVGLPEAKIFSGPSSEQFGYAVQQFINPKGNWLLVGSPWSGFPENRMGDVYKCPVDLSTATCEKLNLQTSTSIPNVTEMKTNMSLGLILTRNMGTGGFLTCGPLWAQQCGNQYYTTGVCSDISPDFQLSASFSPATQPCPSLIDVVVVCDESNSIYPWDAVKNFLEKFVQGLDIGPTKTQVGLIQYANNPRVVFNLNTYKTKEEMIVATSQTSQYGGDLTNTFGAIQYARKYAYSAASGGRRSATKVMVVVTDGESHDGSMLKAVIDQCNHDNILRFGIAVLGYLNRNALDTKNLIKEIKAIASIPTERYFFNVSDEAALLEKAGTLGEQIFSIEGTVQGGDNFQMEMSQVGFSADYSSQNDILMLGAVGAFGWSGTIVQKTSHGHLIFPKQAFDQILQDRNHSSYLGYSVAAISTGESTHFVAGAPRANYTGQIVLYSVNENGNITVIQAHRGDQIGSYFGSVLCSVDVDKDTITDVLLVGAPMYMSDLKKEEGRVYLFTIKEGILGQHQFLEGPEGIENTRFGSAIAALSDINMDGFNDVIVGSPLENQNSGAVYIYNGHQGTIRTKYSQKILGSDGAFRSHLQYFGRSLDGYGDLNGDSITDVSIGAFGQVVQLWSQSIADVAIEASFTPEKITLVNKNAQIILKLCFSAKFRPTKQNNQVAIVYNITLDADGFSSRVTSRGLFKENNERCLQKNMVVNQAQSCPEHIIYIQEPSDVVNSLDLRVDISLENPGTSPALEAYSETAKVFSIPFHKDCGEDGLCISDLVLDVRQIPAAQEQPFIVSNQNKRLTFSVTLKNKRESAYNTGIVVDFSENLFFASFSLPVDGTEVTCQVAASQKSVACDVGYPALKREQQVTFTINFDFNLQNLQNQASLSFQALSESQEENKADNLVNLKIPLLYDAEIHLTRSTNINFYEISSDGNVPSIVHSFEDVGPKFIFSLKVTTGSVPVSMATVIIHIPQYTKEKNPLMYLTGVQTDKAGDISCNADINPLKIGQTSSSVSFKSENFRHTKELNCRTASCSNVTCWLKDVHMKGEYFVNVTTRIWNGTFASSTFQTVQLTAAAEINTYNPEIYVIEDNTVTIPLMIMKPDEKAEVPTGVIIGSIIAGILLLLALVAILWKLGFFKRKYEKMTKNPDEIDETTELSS
T1 sequence (P05556 21-798, chain 2 of 2): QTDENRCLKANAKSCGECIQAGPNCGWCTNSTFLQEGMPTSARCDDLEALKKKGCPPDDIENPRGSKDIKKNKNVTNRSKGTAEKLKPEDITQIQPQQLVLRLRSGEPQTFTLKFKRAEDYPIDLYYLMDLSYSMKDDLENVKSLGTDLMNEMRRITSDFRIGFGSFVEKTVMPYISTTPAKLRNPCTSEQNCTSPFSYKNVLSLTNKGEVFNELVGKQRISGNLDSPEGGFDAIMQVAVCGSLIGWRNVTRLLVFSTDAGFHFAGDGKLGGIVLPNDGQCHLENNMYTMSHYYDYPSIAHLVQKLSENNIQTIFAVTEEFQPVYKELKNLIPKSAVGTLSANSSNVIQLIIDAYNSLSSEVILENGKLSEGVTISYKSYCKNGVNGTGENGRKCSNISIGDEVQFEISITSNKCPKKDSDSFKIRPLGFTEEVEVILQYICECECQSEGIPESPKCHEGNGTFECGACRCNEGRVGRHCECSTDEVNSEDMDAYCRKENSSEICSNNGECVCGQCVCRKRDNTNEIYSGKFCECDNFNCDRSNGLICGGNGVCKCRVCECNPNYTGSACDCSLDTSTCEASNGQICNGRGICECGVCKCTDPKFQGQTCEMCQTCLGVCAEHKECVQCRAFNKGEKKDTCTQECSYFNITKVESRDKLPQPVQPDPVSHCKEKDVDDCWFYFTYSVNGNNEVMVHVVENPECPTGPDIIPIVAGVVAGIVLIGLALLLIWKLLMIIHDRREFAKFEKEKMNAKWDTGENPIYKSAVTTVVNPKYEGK

B1: Tissue extracted bovine chondroadherin (ligand, UniProt Q27972 25-361, looked up)
chain: CPQNCHCHSDLQHVICDKVGLQKIPKVSEKTKLLNLQRNNFPVLATNSFRAMPNLVSLHLQHCQIREVAAGAFRGLKQLIYLYLSHNDIRVLRAGAFDDLTELTYLYLDHNKVTELPRGLLSPLVNLFILQLNNNKIRELRSGAFQGAKDLRWLYLSENSLSSLQPGALDDVENLAKFYLDRNQLSSYPSAALSKLRVVEELKLSHNPLKSIPDNAFQSFGRYLETLWLDNTNLEKFSDGAFLGVTTLKHVHLENNRLHQLPSNFPFDSLETLTLTNNPWKCTCQLRGLRRWLEAKTSRPDATCASPAKFRGQHIRDTDAFRGCKFPTKRSKKAGRH
For the molecule B1, the binding result in assay [1] was “binds”.
As for CQLRGLRRWLEAK (also called 12-mer peptide) [Synthetic peptide CQLRGLRRWLEAK (12-mer chondroadherin peptide plus an N-terminal cysteine)], the binding result in assay [2] is “binds”.

For the origin of these results see patent publication US20090291879A1 (published 2009).
